From patent US10940182B2, “Use of modified vasoactive intestinal peptides in the treatment of hypertension” (PhaseBio Pharmaceuticals, Inc., priority 2011, dated 2021)

Experiments:
[1] = test system: conscious spontaneously hypertensive rats (SHR); experiment: Telemetric blood pressure and heart rate in conscious SHR pretreated with anti-hypertensives (Example 8); assay type: in vivo, rat; details: 9 mg/kg SQ
Experimental: The hemodynamic effects of Vasomera™ when given as a single-dose SQ bolus to conscious spontaneously hypertensive rats (SHR) pretreated with three common anti-hypertensives were tested.
SHR rats (351±4 g, n=8) were instrumented for telemetric BP and ECG monitoring. First, both Vasomera™ (9 mg [177 nmol]/kg, SQ) and placebo (VEH) were assayed in untreated animals. Then, the effects of Vasomera™ were tested during concomitant oral β-adrenergic receptor blockade (+BB, atenolol 20 mg/kg/day), calcium-channel blockade (+CCB, amlodipine 5 mg/kg/day) and ACE-inhibition (+ACE, ramipril 1 mg/kg/day). Mean arterial pressure (MAP) and heart rate (HR) were measured/averaged over 24 hours both pre- and post-dosing.

[2] = test system: conscious spontaneously hypertensive rats (SHR); experiment: Telemetric blood pressure and heart rate in conscious SHR, single SQ dose, with and without atenolol (Example 7); assay type: in vivo, rat; details: for heart rate: +2 hr
Experimental: Here, the effects of PB 1046 (Vasomera™) when given as a single-dose SQ bolus to conscious spontaneously hypertensive rats (SHR) was tested.
SHR rats (351±4 g, n=8) were instrumented for telemetric blood pressure and ECG monitoring. Via a Latin-Square design, the effects of Vasomera (1, 3, and 9 mg/kg SQ) as well as of vehicle (VEH, SQ) were evaluated. Finally, Vasomera™ (9 mg/kg SQ) was assayed during concomitant β-adrenergic receptor blockade (BB, atenolol 20 mg/kg/day PO). Changes in mean arterial pressure (MAP) and heart rate (HR) were measured.

[3] = biological target: T1, human Vasoactive Intestinal Peptide Receptor 2 (VPAC2) (Homo sapiens, UniProt P41587); experiment: cAMP cell-based bioassay, CHO cells expressing VPAC2; details: for in vitro activity for VPAC2 receptor compared with native VIP: cAMP, CHO cells expressing VPAC2, 30 minute incubation, FIG. 6, PB1047 DPP-IV treated
T1 construct: expressed in transfected cells; host or cells: Chinese Hamster Ovary (CHO) cells
T1 sequence (P41587 24-438): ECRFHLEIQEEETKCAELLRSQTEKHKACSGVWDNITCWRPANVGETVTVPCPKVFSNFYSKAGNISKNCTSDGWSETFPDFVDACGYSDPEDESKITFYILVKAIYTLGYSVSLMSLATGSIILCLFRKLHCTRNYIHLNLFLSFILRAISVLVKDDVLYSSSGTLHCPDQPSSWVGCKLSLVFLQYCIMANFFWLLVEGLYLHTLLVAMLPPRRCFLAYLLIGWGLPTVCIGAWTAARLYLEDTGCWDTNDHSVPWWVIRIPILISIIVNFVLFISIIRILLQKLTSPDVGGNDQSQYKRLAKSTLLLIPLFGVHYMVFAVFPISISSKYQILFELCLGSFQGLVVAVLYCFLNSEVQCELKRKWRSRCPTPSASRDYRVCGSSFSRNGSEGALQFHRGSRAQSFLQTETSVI
Experimental: (§1) Since the amount of cAMP accumulation in cells after receptor-mediated ligand binding and activation is directly proportional to the amount of intact peptide or fusion protein present, the assay can be used to determine bioactivity and relative potency.
In this example, the activity of VIP-ELP fusion proteins PB1046 and PB1047 was tested. […] Both constructs have ELP(1-120) at their C-terminus. […] After 30 minute incubations of various concentrations of the fusion proteins with the cell, the cells were lysed and the amount of cAMP produced was measured using a commercial kit. PB1047 was DPP-IV treated prior to the addition to the cells.
FIG. 11 illustrates the activity of PB1120 for the VPAC2 receptor. […] However, in contrast to the results seen with VPAC1, PB1046 was equipotent for VPAC2 as compared to the native peptide.

[4] = biological target: T2, human Vasoactive Intestinal Peptide Receptor 1 (VPAC1) (Homo sapiens, UniProt P32241); experiment: cAMP cell-based bioassay, CHO cells expressing VPAC1; details: for in vitro activity for VPAC1 receptor compared with native VIP: cAMP, CHO cells expressing VPAC1, 30 minute incubation, FIG. 7, PB1047 DPP-IV treated
T2 construct: expressed in transfected cells; host or cells: Chinese Hamster Ovary (CHO) cells
T2 sequence (P32241 31-457): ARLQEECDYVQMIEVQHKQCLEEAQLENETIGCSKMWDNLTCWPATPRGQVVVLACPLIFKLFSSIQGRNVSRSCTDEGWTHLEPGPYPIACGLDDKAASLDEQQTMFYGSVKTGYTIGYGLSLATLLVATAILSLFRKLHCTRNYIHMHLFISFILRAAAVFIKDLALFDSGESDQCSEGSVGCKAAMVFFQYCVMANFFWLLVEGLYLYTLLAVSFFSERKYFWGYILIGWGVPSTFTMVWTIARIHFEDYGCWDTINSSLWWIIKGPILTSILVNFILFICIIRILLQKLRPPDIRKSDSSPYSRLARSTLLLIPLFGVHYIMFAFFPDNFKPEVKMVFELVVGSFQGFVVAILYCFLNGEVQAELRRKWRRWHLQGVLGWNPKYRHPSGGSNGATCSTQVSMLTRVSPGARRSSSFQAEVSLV
Experimental: as §1
After 30 minute incubations of various concentrations of the fusion proteins with CHO cells, cells were lysed and the amount of cAMP produced was measured using a commercial kit. PB1047 was DPP-IV treated prior to the addition to the cells.
The activity of the PB1120 fusion peptide was tested in vitro.

[5] = test system: Spontaneously hypertensive rats; experiment: Blood pressure effect of PB1047 in spontaneously hypertensive rats; assay type: in vivo, rat; details: 10 mg/kg subcutaneous, vs buffer control, FIG. 8
Experimental: The activity of the modified VIP-ELP fusion protein PB1047 was also tested in vivo. Specifically, effects of VIP-ELP fusion protein on blood pressure were tested. Spontaneously hypertensive rats were treated subcutaneous with PB1047 (10 mg/kg) or buffer control and their blood pressures were measured at several points after administration of the fusion protein. Five animals were used for each group and the graphs show the average and the standard deviation.

[6] = under β-adrenergic receptor blockade (atenolol 20 mg/kg/day)
[7] = untreated rats, averaged over 24 hours

B1: PB1046: VIP-ELP fusion protein: VIP with Met at the N-terminus and ELP1-120 fused at the C-terminus (SEQ ID NO: 14) (protein)
chain: MHSDAVFTDNYTRLRKQMAVKKYLNSILNVPGVGVPGVGVPGGGVPGAGVPGVGVPGVGVPGVGVPGGGVPGAGVPGGGVPGVGVPGVGVPGGGVPGAGVPGVGVPGVGVPGVGVPGGGVPGAGVPGGGVPGVGVPGVGVPGGGVPGAGVPGVGVPGVGVPGVGVPGGGVPGAGVPGGGVPGVGVPGVGVPGGGVPGAGVPGVGVPGVGVPGVGVPGGGVPGAGVPGGGVPGVGVPGVGVPGGGVPGAGVPGVGVPGVGVPGVGVPGGGVPGAGVPGGGVPGVGVPGVGVPGGGVPGAGVPGVGVPGVGVPGVGVPGGGVPGAGVPGGGVPGVGVPGVGVPGGGVPGAGVPGVGVPGVGVPGVGVPGGGVPGAGVPGGGVPGVGVPGVGVPGGGVPGAGVPGVGVPGVGVPGVGVPGGGVPGAGVPGGGVPGVGVPGVGVPGGGVPGAGVPGVGVPGVGVPGVGVPGGGVPGAGVPGGGVPGVGVPGVGVPGGGVPGAGVPGVGVPGVGVPGVGVPGGGVPGAGVPGGGVPGVGVPGVGVPGGGVPGAGVPGVGVPGVGVPGVGVPGGGVPGAGVPGGGVPGVGVPGVGVPGGGVPGAGVPGVGVPGVGVPGVGVPGGGVPGAGVPGGGVPGWP
modifications: M-VIP ELP1-120
- duration of decreases in blood pressure post-dosing ([1]; FIG. 15A): up to 12 hours
- change in MAP ([1]; rats pre-treated with amlodipine 5 mg/kg/day oral): −13±2%
- change in MAP ([1]; rats pre-treated with atenolol 20 mg/kg/day oral): −14±1%
- change in MAP ([1]; rats pre-treated with ramipril 1 mg/kg/day oral): −9±2%
- change in heart rate [1, 6]: +6±1%
- heart rate post-dosing [1, 6]: 294±2 bpm
- MAP post-dosing [1, 7]: 171±5 mmHg
- change in heart rate [1, 7]: +8±1%
- heart rate post-dosing [1, 7]: 384±8 bpm
- lowering of MAP, post- vs pre-dosing [1, 7]: 9±1%
- chronotropy under co-treatment ([1]; with amlodipine 5 mg/kg/day): unaffected
- chronotropy under co-treatment ([1]; with ramipril 1 mg/kg/day): unaffected
- adverse clinical effects ([1]; SHR, with or without anti-hypertensives): no adverse clinical effects were noted
- lowering of MAP vs VEH ([2]; 9 mg/kg (177 nmol/kg) SQ, +6 hr): 16±3%
- heart rate ([2]; 9 mg/kg SQ with β-adrenergic receptor blockade (atenolol 20 mg/kg/day PO)): 308±3 bpm
- MAP ([2]; 9 mg/kg SQ with β-adrenergic receptor blockade (atenolol 20 mg/kg/day PO), +6 hr): 131±3 mmHg
- heart rate ([2]; 9 mg/kg SQ): 370±15 bpm
- MAP ([2]; 9 mg/kg SQ, +6 hr): 154±5 mmHg
- duration of dose-dependent decreases in blood pressure post-dosing ([2]; 1, 3, 9 mg/kg SQ, FIG. 14A): up to 12 hours
- adverse clinical effects ([2]; SHR, 1-9 mg/kg SQ, with or without atenolol): No adverse clinical effects were noted
- potency for VPAC2 as compared to the native peptide ([3]; FIG. 11): equipotent
- selectivity for VPAC2 receptor over VPAC1 receptor ([3]; cAMP assays, FIG. 6 and 7): selectively activates VPAC2 receptor over VPAC1 receptor
- in vitro activity for VPAC2 receptor compared with native VIP [3]: somewhat more active than native VIP protein
- fold less active than the native VIP peptide on the VPAC1 receptor ([4]; FIG. 10): approximately 11 fold
- in vitro activity for VPAC1 receptor compared with native VIP [4]: much less active than native VIP protein

B2: PB1047: VIP-ELP fusion protein with tripeptide MAA at the N-terminus (Met removed to leave AA), ELP1-120 at C-terminus (SEQ ID NO: 15) (protein)
chain: MAAHSDAVFTDNYTRLRKQMAVKKYLNSILNVPGVGVPGVGVPGGGVPGAGVPGVGVPGVGVPGVGVPGGGVPGAGVPGGGVPGVGVPGVGVPGGGVPGAGVPGVGVPGVGVPGVGVPGGGVPGAGVPGGGVPGVGVPGVGVPGGGVPGAGVPGVGVPGVGVPGVGVPGGGVPGAGVPGGGVPGVGVPGVGVPGGGVPGAGVPGVGVPGVGVPGVGVPGGGVPGAGVPGGGVPGVGVPGVGVPGGGVPGAGVPGVGVPGVGVPGVGVPGGGVPGAGVPGGGVPGVGVPGVGVPGGGVPGAGVPGVGVPGVGVPGVGVPGGGVPGAGVPGGGVPGVGVPGVGVPGGGVPGAGVPGVGVPGVGVPGVGVPGGGVPGAGVPGGGVPGVGVPGVGVPGGGVPGAGVPGVGVPGVGVPGVGVPGGGVPGAGVPGGGVPGVGVPGVGVPGGGVPGAGVPGVGVPGVGVPGVGVPGGGVPGAGVPGGGVPGVGVPGVGVPGGGVPGAGVPGVGVPGVGVPGVGVPGGGVPGAGVPGGGVPGVGVPGVGVPGGGVPGAGVPGVGVPGVGVPGVGVPGGGVPGAGVPGGGVPGVGVPGVGVPGGGVPGAGVPGVGVPGVGVPGVGVPGGGVPGAGVPGGGVPGWP
modifications: MAA-VIP ELP1-120
- diastolic blood pressure [5]: significantly reduced
- systolic blood pressure [5]: significantly reduced
- in vitro activity for VPAC2 receptor compared with native VIP [3]: less active
- in vitro activity for VPAC1 receptor compared with native VIP [4]: about the same as it was in the test for VPAC2 receptor
